# T1: vIRF4 (Kaposi's-sarcoma-associated-herpesvirus vIRF4), full length wild type (Kaposi's-sarcoma-associated-herpesvirus …, UniProt Q2HR73 1-911)
# T1 sequence: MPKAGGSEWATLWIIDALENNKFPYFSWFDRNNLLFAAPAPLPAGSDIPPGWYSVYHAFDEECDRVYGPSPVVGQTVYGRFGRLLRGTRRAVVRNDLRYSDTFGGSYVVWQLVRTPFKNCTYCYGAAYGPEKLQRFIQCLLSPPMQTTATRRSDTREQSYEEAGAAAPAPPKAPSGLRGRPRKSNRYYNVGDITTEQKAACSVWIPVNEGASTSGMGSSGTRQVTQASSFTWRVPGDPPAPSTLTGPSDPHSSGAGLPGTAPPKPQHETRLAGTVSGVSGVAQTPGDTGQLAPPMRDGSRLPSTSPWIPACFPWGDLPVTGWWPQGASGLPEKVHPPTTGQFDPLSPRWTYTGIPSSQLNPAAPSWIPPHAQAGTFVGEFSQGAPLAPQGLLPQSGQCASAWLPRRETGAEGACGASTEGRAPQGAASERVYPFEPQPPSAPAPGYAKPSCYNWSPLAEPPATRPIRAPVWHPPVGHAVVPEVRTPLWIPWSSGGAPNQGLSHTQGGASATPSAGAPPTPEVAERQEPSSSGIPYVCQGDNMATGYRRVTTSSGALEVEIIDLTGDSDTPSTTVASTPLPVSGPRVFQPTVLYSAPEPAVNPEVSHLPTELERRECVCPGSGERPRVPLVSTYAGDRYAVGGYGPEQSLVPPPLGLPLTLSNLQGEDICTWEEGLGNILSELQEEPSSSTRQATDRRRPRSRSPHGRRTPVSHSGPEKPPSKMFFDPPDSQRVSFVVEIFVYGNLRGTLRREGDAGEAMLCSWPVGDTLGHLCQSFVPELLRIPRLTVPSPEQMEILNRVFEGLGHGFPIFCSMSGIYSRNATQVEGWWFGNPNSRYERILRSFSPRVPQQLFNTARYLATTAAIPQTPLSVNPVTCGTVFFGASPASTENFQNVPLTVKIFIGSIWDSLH
# B1: Flag/HAUSP 205-1108 (enzyme)
# single chain: WDSKKHTGYVGLKNQGATCYMNSLLQTLFFTNQLRKAVYMMPTEGDDSSKSVPLALQRVFYELQHSDKPVGTKKLTKSFGWETLDSFMQHDVQELCRVLLDNVENKMKGTCVEGTIPKLFRGKMVSYIQCKEVDYRSDRREDYYDIQLSIKGKKNIFESFVDYVAVEQLDGDNKYDAGEHGLQEAEKGVKFLTLPPVLHLQLMRFMYDPQTDQNIKINDRFEFPEQLPLDEFLQKTDPKDPANYILHAVLVHSGDNHGGHYVVYLNPKGDGKWCKFDDDVVSRCTKEEAIEHNYGGHDDDLSVRHCTNAYMLVYIRESKLSEVLQAVTDHDIPQQLVERLQEEKRIEAQKRKERQEAHLYMQVQIVAEDQFCGHQGNDMYDEEKVKYTVFKVLKNSSLAEFVQSLSQTMGFPQDQIRLWPMQARSNGTKRPAMLDNEADGNKTMIELSDNENPWTIFLETVDPELAASGATLPKFDKDHDVMLFLKMYDPKTRSLNYCGHIYTPISCKIRDLLPVMCDRAGFIQDTSLILYEEVKPNLTERIQDYDVSLDKALDELMDGDIIVFQKDDPENDNSELPTAKEYFRDLYHRVDVIFCDKTIPNDPGFVVTLSNRMNYFQVAKTVAQRLNTDPMLLQFFKSQGYRDGPGNPLRHNYEGTLRDLLQFFKPRQPKKLYYQQLKMKITDFENRRSFKCIWLNSQFREEEITLYPDKHGCVRDLLEECKKAVELGEKASGKLRLLEIVSYKIIGVHQEDELLECLSPATSRTFRIEEIPLDQVDIDKENEMLVTVAHFHKEVFGTFGIPFLLRIHQGEHFREVMKRIQSLLDIQEKEFEKFKFAIVMMGRHQYINEDEYEVNLKDFEPQPGNMSHPRPWLGLDHFNKAPKRSRYTYLEKAIKIHN
# notes: N-terminal deletion fragment without the TRAF domain
# B2: vIRF4Δ^202-256 mutant (other)
# chain: MPKAGGSEWATLWIIDALENNKFPYFSWFDRNNLLFAAPAPLPAGSDIPPGWYSVYHAFDEECDRVYGPSPVVGQTVYGRFGRLLRGTRRAVVRNDLRYSDTFGGSYVVWQLVRTPFKNCTYCYGAAYGPEKLQRFIQCLLSPPMQTTATRRSDTREQSYEEAGAAAPAPPKAPSGLRGRPRKSNRYYNVGDITTEQKAACLPGTAPPKPQHETRLAGTVSGVSGVAQTPGDTGQLAPPMRDGSRLPSTSPWIPACFPWGDLPVTGWWPQGASGLPEKVHPPTTGQFDPLSPRWTYTGIPSSQLNPAAPSWIPPHAQAGTFVGEFSQGAPLAPQGLLPQSGQCASAWLPRRETGAEGACGASTEGRAPQGAASERVYPFEPQPPSAPAPGYAKPSCYNWSPLAEPPATRPIRAPVWHPPVGHAVVPEVRTPLWIPWSSGGAPNQGLSHTQGGASATPSAGAPPTPEVAERQEPSSSGIPYVCQGDNMATGYRRVTTSSGALEVEIIDLTGDSDTPSTTVASTPLPVSGPRVFQPTVLYSAPEPAVNPEVSHLPTELERRECVCPGSGERPRVPLVSTYAGDRYAVGGYGPEQSLVPPPLGLPLTLSNLQGEDICTWEEGLGNILSELQEEPSSSTRQATDRRRPRSRSPHGRRTPVSHSGPEKPPSKMFFDPPDSQRVSFVVEIFVYGNLRGTLRREGDAGEAMLCSWPVGDTLGHLCQSFVPELLRIPRLTVPSPEQMEILNRVFEGLGHGFPIFCSMSGIYSRNATQVEGWWFGNPNSRYERILRSFSPRVPQQLFNTARYLATTAAIPQTPLSVNPVTCGTVFFGASPASTENFQNVPLTVKIFIGSIWDSLH
# B3: vIRF4^153-256 (other)
# chain: SDTREQSYEEAGAAAPAPPKAPSGLRGRPRKSNRYYNVGDITTEQKAACSVWIPVNEGASTSGMGSSGTRQVTQASSFTWRVPGDPPAPSTLTGPSDPHSSGAG
# Assays:
# [1] = target: T1, vIRF4 …; test: co-immunoprecipitation from transfected 293T cells, IP: V5, IB: Flag
# [2] = target: T2, HAUSP (Herpes virus-associated ubiquitin-specific protease), full length (human, UniProt Q93009 1-1102); test: co-transfection in 293T cells (Flag-HAUSP with V5-vIRF4 constructs)
# T2 construct: also called USP7; Flag-HAUSP
# [3] = target: T3, HAUSP TRAF domain (HAUSP^62-205) (human, UniProt Q93009 62-205); test: ITC, titration against the HAUSP TRAF domain, 20 C
# T3 construct: also called TRAF-like domain of HAUSP
# [4] = target: T3, HAUSP TRAF domain (HAUSP^62-205); test: ITC
# T3 sequence (Q93009 62-205): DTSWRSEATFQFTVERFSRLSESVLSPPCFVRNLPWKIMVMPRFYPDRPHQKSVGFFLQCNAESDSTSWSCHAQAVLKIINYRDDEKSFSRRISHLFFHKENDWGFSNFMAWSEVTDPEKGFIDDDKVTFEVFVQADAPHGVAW
binder,measurement,setting,value
B1,binding result,[1],no binding
B2,binding result,[2],no binding
B3,Ka,[3],1.32e+07 M⁻¹
same,Kd,[3],76 nM
same,TΔS,[3],-10.1 kcal/mol
same,n,[3],1.13
same,ΔG,[3],-7.64 kcal/mol
same,ΔH,[3],-17.7 kcal/mol
same,fold higher affinity (against vIRF4^153-216 and vIRF4^202-216),[4],7 fold
